Source: the DeepSol protein solubility set

Test: soluble on expression in E. coli; label from the status in PepcDB or PDB records

| Sequence | soluble on expression in E. coli |
| --- | --- |
| MRKLKMMLFGASLIMVAGCSSKENALCHPQPKPPAPPAWAMMPPSNSLQLLDETFSVSGTESSETRQHLEHHHHHH | not soluble |
| MGSSHHHHHHSSGLVPAGSHMASMTGGQQMGRGSMSLQVNLLNNTFANPFMNAAGVMCTTTEELVAMTESASGSLVSKSCTPALREGNPTPRYQALPLGSINSMGLPNNGFDFYLAYAAEQHDYGKKPLFLSMSGLSMRENVEMCKRLAAVATEKGVILELNLSCPNVPGKPQVAYDFDAMRQCLTAVSEVYPHSFGVKMPPYFDFAHFDAAAEILNEFPKVQFITCINSIGNGLVIDAETESVVIKPKQGFGGLGGRYVLPTALANINAFYRRCPGKLIFGCGGVYTGEDAFLHVLAGASMVQVGTALQEEGPSIFERLTSELLGVMAKKRYQTLDEFRGKVRTLDGTAESTR | soluble |
| MAGDPMYSLFQEGRKMKNTAFLITKNHYPKDYRLKKSPDSDSAMGVAKRILAEVMIFRRVPETISLCGTGCQKCASPHLPKIISAVNKNEPVTFILPAFPGKSPNPEKVLGHLPDHAERLSLNFLGTLCQRIKNFYTPGIKIILCSDGRVFSDVVGMNESDVTAYQLELDRLIKEMSLADLSTFNLDYFYKDLHFVQMREELMKSYGQSLDFLKQKIRNGAKPSASPDEQEANRMYSGITRFLFEDAMHAGQTKSRTAIQKESRFKAYEVIRRSNAWSALIAERFPKAVRLSIHPQTCGSKKLGIRLIGNESWMTPWHGVAVESNKGYVLLRRSEAEALGAKLICSSDGRHSHYQLMAEVSYELAAALEHHHHHH | soluble |
| MSYDYIVSQYLAYIKDITLEGCKAEEIFDYFKDKLNIVSKEGCDKPYIKVYKNNRLYFSYYGIPAINEFWPFLNALVRISNNVIQLDEKEKELAANIRGNIKLFVTPDCTKCPIAAELLYQLPILNSNISLEIIDVTTYDDLGKKHRVLNVPKIVLNEKTEIPGSFPPTIILKMLAKGSEQH | soluble |
| MSKPFKLNSAFKPSGDQPEAIRRLEEGLEDGLAHQTLLGVTGSGKTFTIANVIADLQRPTMVLAPNKTLAAQLYGEMKEFFPENAVEYFVSYYDYYQPEAYVPSSDTFIEKDASVNEHIEQMRLSATKAMLERRDVVVVASVSAIYGLGDPDLYLKMMLHLTVGMIIDQRAILRRLAELQYARNDQAFQRGTFRVRGEVIDIFPAESDDIALRVELFDEEVERLSLFDPLTGQIVSTIPRFTIYPKTHYVTPRERIVQAMEEIKEELAARRKVLLENNKLLEEQRLTQRTQFDLEMMNELGYCSGIENYSRFLSGRGPGEPPPTLFDYLPADGLLVVDESHVTIPQIGGMYRGDRARKETLVEYGFRLPSALDNRPLKFEEFEALAPQTIYVSATPGNYELEKSGGDVVDQVVRPTGLLDPIIEVRPVATQVDDLLSEIRQRAAINERVLVTTLTKRMAEDLTEYLEEHGERVRYLHSDIDTVERMEIIRDLRLGEFDVLVGINLLREGLDMPEVSLVAILDADKEGFLRSERSLIQTIGRAARNVNGKAILYGDKITPSMAKAIGETERRREKQQKYNEEHGITPQGLNKKVVDILALGQNIAKTKAKGRGKSRPIVEPDNVPMDMSPKALQQKIHELEGLMMQHAQNLEFEEAAQIRDQLHQLRELFIAAS | soluble |
| MSLRPARKTVGVALSGGGANGIAQIGVLKALDEERIPVDYIAGTSMGAIIGGLYSCGYSPADLEKIAETLPWQSVLSIREENPRARIFLEQQRIRDRSTIAIRFDKLKLMIPKSLSSAQALTGTLDLLILNGVYHSWQDFNSLPVQFRAVSTDLISGKRITLTSGSLSEAMRASSTIPVLFEPIERDGYRLVDGGLVANLPVDELDVVNASYKIAVDTHGSMYSKSGDLDLPWKAADQAITILTGLQYPAQLEKADEGHHHHHH | soluble |
| MGSDKIHHHHHHMTVMNAYQELESQGLIYSKEKSGYFVAEQIALKPLEQYSIVSLNSKIEINSLVFKYLKSIQHESVVPFGSAFPDSQLLAAPKLIQIMGQLARQRQSYDQTASLPPGNLALRKLIAQRYCMQGIQTDPDDIVITSGGLDALNLSLQAVAKPGDYILLQQTVFYGAWQAAERLGLKVITIPEHPQHGFDLEAFEQVIHTYPIKVCWLMLNSHNPIGFTVSDEIKYKIAKLLHEHQIYLIEDDVYEELYYGGQKPLSMKYFDQQNLVLHCSSFSKTLGAGFRVGWVYAGKFSDHIQHLQLMSTISVNALIQNALVEFLSHHHYEKHLRTLRLSLERYKKQFYHYLKQHLPAICEIYYYPSGYFLWVKLPHKLDSMQIYEELIQQDIGVAPSPLFSVLPAQQHYLRINCSFEWNEKIQAALDQVIKTIQQRVEASL | not soluble |
| ETEQSVDLETVSVVGKSRPRATSGLLHTSTASDKIISGDTLRQKAVNLGDALDGVPGIHASQYGGGASAPVIRGQTGRRIKVLNHHGETGDMADFSPDHAIMVDTALSQQVEILR | not soluble |
